Bounds are passed on as bounds.

The target of assay [1] is GPC3 core (sGPC3-His) protein (human) (UniProt P51654). Briefly: competition ELISA on plate-bound sGPC3; unlabeled GT30 (100-fold) inhibits competitor biotin-labeled GT30. A general note: In an ELISA, binding on a coated surface is turned into a signal by an enzyme label.
The target is the same in assay [2]. Briefly: competition ELISA on plate-bound sGPC3; unlabeled GT30 (100-fold) against competitor biotin-labeled GT114.
For assay [3] the target is unchanged. In words: competition ELISA on plate-bound sGPC3; unlabeled GT30 (100-fold) against competitor biotin-labeled GT165; signal of the labeled antibody.
Assay [4] shares this target. In words: competition ELISA on plate-bound sGPC3; unlabeled GT30 (100-fold) against competitor biotin-labeled GT30; signal of the labeled antibody.
Assay [5] addresses T1, AW3, C-terminally His-tagged recombinant product of positions 1 to 218 of GPC3 (human, UniProt P51654 25-218).
T1 construct: Expressed in CHO cells, cell pellets used in Western blot; The range is as printed and starts at position 1; not shown: C-terminal His tag
Briefly: Western blot, pellets of CHO cells expressing the product. Background: A western blot detects proteins with antibodies after separation by electrophoresis.

Assay [6] has as its target T2, AW2, C-terminally His-tagged recombinant product of positions 1 to 196 of GPC3 (human, UniProt P51654 25-196).
T2 construct: Expressed in CHO cells, cell pellets used in Western blot; The range is as printed and starts at position 1; also called AW2 (1-196); not shown: C-terminal His tag
The description is as above.

The target in assay [7] is GPC3 core (sGPC3-His) protein (human) (UniProt P51654). In words: ELISA on plate-bound sGPC3; biotin-labeled GT30, no unlabeled antibody.
For assay [8] the target is unchanged. In words: competition ELISA on plate-bound sGPC3; unlabeled GT30 (100-fold) against competitor biotin-labeled GT607.
Assay [9] has the same target. In words: competition ELISA on plate-bound sGPC3; unlabeled GT30 (100-fold) against competitor biotin-labeled GT165.
Assay [10] addresses T3, AW5, C-terminally His-tagged recombinant product of positions 1 to 357 of GPC3 (human, UniProt P51654 25-357).
T3 construct: Expressed in CHO cells, cell pellets used in Western blot; The range is as printed and starts at position 1; also called AW5 (1-357); not shown: C-terminal His tag
Briefly: Western blot analysis, CHO cell pellets.

In assay [11] the target is GPC3 core (sGPC3-His) protein (human) (UniProt P51654). Briefly: competition ELISA on plate-bound sGPC3; unlabeled GT30 (100-fold) against competitor biotin-labeled GT607; signal of the labeled antibody.
Assay [12] addresses T4, GPC3 peptide 321-350 (SEQ ID NO: 17) (human).
T4 construct: Synthetic 30-residue peptide of GPC3
T4 peptide: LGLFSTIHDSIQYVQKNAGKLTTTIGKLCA
Briefly: peptide ELISA, peptide on plate, antibody at 2 µg/mL.

Assay [13] has as its target GPC3 core (sGPC3-His) protein (human) (UniProt P51654). Briefly: competition ELISA on plate-bound sGPC3; unlabeled GT30 (100-fold) against competitor biotin-labeled GT114; signal of the labeled antibody.

Sequence of GPC3 core (sGPC3-His) protein (human) (P51654 25-563 S495A/S509A): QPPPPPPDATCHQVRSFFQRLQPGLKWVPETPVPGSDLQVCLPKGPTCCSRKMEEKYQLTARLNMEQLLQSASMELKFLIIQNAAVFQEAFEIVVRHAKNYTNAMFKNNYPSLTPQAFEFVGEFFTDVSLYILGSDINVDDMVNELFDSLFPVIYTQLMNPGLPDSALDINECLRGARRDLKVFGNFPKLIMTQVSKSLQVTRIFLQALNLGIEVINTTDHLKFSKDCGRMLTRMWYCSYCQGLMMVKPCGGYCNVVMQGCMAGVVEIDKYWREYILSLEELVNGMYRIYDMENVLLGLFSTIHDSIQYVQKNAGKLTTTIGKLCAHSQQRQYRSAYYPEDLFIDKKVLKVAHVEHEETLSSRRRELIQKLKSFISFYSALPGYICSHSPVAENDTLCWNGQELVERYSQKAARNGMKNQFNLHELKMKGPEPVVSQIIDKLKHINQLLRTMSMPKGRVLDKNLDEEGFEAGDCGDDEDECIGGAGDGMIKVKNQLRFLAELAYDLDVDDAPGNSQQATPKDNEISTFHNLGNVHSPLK
T1 sequence (P51654 25-218): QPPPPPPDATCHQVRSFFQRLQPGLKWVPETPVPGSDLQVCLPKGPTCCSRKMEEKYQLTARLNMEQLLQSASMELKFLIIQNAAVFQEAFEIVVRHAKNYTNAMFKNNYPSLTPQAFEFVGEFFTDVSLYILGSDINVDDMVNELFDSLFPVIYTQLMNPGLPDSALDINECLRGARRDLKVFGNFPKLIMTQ
T3 sequence (P51654 25-357): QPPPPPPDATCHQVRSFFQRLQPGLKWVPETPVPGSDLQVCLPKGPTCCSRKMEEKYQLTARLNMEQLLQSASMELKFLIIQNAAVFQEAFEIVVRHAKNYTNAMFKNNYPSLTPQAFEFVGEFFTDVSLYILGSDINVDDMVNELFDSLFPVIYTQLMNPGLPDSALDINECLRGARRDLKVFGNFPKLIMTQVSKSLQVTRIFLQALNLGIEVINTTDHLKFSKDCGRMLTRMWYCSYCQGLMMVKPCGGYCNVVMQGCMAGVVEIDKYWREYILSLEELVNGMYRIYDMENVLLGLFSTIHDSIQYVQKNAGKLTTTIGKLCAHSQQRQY
T2 sequence (P51654 25-196): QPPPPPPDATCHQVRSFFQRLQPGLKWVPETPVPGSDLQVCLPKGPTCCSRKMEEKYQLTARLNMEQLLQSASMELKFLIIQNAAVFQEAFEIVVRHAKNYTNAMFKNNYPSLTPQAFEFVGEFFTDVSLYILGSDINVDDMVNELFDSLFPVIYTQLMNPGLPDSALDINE

B1: GT30 antibody (antibody, IgG1, V domains shown)
VH: QVQLQQSGAELARPGASVKLSCRASGYTFTSYGISWMMQRTGQGLEWIGEIYPRSGITYYNEKFKGKATLTADKSSSTAYMQLSSLTSEDSAVYFCARDVSDGYLFPYWGQGTLVTVSA
VL: DIQMTQSPASLSASVGETVTITCRTSENIYSYLAWYQQKQGKSPQLLVYNAKTLPEGVPSRFSGSGSGTQFSLKINSLQPEDFGSYYCQHHYGTPPTFGGGTKLEIKR
Take B1: the Inhibitory effect (%) is 96% in assay [1], less than 0% in [2], 3% in [8] and 94% in [9]. The O.D. 450 was 0.098 O.D. 450 in assay [3]; 0.07 O.D. 450 in assay [4]; 1.84 O.D. 450 in assay [7]; 2.12 O.D. 450 in assay [11]; 2.31 O.D. 450 in assay [13]. In addition, the binding result in assay [5] is listed as “no binding”; in assay [6] it was “no binding”; in [10], “binds”; in [12] it was “binds”.

Source of the values: patent EP3088890B1 (Chugai Seiyaku Kabushiki Kaisha, dated 2020).
